# Values quoted from earlier work, collected in patent US10464968B2, “Method for producing a composition for treating a tooth lesion” (CREDENTIS AG, priority 2012, dated 2019).
# Like-named read-outs stand apart in the source and are kept apart here. No end group written: not given here.
sequence,measurement,setting,value
"QQRFEWEFEQQ [Example P11-4, self-assembling peptide of 11 amino acids]",phase state of aqueous solution,above pH 7.5,isotropic fluid
same,phase state of aqueous solution,below pH 3,nematic gel
same,phase state of aqueous solution,between about pH 5 and about pH 3,flocculate
same,phase state of aqueous solution,between about pH 7.5 and about pH 5,nematic fluid
